Laboratory results published in publication PMC9352680, “A comprehensive thermodynamic model for RNA binding by the Saccharomyces cerevisiae Pumilio protein PUF4”.

T1: PUF4 RNA-binding domain (Saccharomyces cerevisiae, UniProt P25339 537-888)
T1 sequence: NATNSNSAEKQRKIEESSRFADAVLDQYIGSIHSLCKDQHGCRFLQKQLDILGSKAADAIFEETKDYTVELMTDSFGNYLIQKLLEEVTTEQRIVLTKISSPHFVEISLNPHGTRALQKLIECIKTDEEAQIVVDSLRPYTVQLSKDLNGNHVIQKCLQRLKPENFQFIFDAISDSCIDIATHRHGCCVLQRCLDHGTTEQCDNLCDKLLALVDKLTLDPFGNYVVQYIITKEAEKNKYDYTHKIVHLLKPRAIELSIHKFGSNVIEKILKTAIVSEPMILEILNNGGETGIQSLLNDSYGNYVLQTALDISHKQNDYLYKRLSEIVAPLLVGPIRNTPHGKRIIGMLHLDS


Molecular target: T1, PUF4 RNA-binding domain
Assay: Mg; RNA-MaP; 20 mM Na-HEPES pH 7.4, 30 mM KOAc, 0.75 mM MgCl2, 0.1% Tween-20, 5% glycerol, 0.1 mg/mL BSA, 2 mM DTT; 25 C; 0.0125-409.6 nM protein
Details: tags: N-His6-TEV cleaved; C-SNAP kept, Cy3B-labelled; label: tethered on chip by stalled RNA polymerase

Row | Binder | Kd
1 | Id_ii_S2_P4E.2_K4.1_C4.2_[C-2T]_H4.1_A4.1_F4.1_T4.2_[G10A] (ssRNA) RNA: UUUGAUUAAUAUGAUAUCGUUCUUUCUUUUGUAUAUUAAUUUCUUUCUCGAUAUCAUAUUAAUCUUU | 0.408 nM
2 | Id_ii_S2_P4E.2_K4.1_C4.2_[C-2T]_[T-1G]_H4.1_A4.1_F4.1_T4.2_[G10A] (ssRNA) RNA: UUUGAUUAAUAUGAUAUCGUUCUUUCUUGUGUAUAUUAAUUUCUUUCUCGAUAUCAUAUUAAUCUUU | 0.4 nM
3 | Id_ii_S2_P4E.2_K4.1_C4.2_[C-2G]_H4.1_A4.1_F4.1_T4.2_[G10A] (ssRNA) RNA: UUUGAUUAAUAUGAUAUCGUUCUUUCUGUUGUAUAUUAAUUUCUUUCUCGAUAUCAUAUUAAUCUUU | 0.724 nM
4 | Id_ii_S2_P4E.2_K4.1_C4.2_[C-2T]_H4.1_A4.1_F4.1_T4.2_[G10T]_[T11C] (ssRNA) RNA: UUUGAUUAAUAUGAUAUCGUUCUUUCUUUUGUAUAUUAUCUUCUUUCUCGAUAUCAUAUUAAUCUUU | 0.364 nM
5 | Id_ii_S2_P4E.2_K4.1_C4.2_[C-2A]_[T-1C]_H4.1_A4.1_F4.1_T4.2_[G10T]_[T11A] (ssRNA) RNA: UUUGAUUAAUAUGAUAUCGUUCUUUCUACUGUAUAUUAUAUUCUUUCUCGAUAUCAUAUUAAUCUUU | 0.628 nM
6 | Id_ii_S2_P4E.2_K4.1_C4.2_[C-2A]_[T-1G]_H4.1_A4.1_F4.1_T4.2_[G10T]_[T11G] (ssRNA) RNA: UUUGAUUAAUAUGAUAUCGUUCUUUCUAGUGUAUAUUAUGUUCUUUCUCGAUAUCAUAUUAAUCUUU | 1.63 nM
7 | Id_ii_S2_P4E.2_K4.1_C4.2_[C-2A]_[T-1G]_H4.1_A4.1_F4.1_T4.2_[G10A] (ssRNA) RNA: UUUGAUUAAUAUGAUAUCGUUCUUUCUAGUGUAUAUUAAUUUCUUUCUCGAUAUCAUAUUAAUCUUU | 0.973 nM
8 | Id_ii_S2_P4E.2_K4.1_C4.2_[C-2G]_H4.1_A4.1_F4.1_T4.2_[G10T]_[T11G] (ssRNA) RNA: UUUGAUUAAUAUGAUAUCGUUCUUUCUGUUGUAUAUUAUGUUCUUUCUCGAUAUCAUAUUAAUCUUU | 0.585 nM
9 | Id_ii_S2_P4E.2_K4.1_C4.2_[C-2A]_[T-1C]_H4.1_A4.1_F4.1_T4.2_[G10T]_[T11G] (ssRNA) RNA: UUUGAUUAAUAUGAUAUCGUUCUUUCUACUGUAUAUUAUGUUCUUUCUCGAUAUCAUAUUAAUCUUU | 1.95 nM
10 | Id_ii_S2_P4E.2_K4.1_C4.2_[C-2G]_H4.1_A4.1_F4.1_T4.2_[G10T]_[T11C] (ssRNA) RNA: UUUGAUUAAUAUGAUAUCGUUCUUUCUGUUGUAUAUUAUCUUCUUUCUCGAUAUCAUAUUAAUCUUU | 1.6 nM
11 | Id_ii_S2_P4E.2_K4.1_C4.2_[C-2A]_[T-1G]_H4.1_A4.1_F4.1_T4.2_[G10A]_[T11A] (ssRNA) RNA: UUUGAUUAAUAUGAUAUCGUUCUUUCUAGUGUAUAUUAAAUUCUUUCUCGAUAUCAUAUUAAUCUUU | 1.64 nM
12 | Id_ii_S2_P4E.2_K4.1_C4.2_[C-2T]_[T-1G]_H4.1_A4.1_F4.1_T4.2_[G10A]_[T11A] (ssRNA) RNA: UUUGAUUAAUAUGAUAUCGUUCUUUCUUGUGUAUAUUAAAUUCUUUCUCGAUAUCAUAUUAAUCUUU | 0.532 nM
13 | Id_ii_S2_P4E.2_K4.1_C4.2_[C-2T]_[T-1A]_H4.1_A4.1_F4.1_T4.2 (ssRNA) RNA: UUUGAUUAAUAUGAUAUCGUUCUUUCUUAUGUAUAUUAGUUUCUUUCUCGAUAUCAUAUUAAUCUUU | 0.715 nM
14 | Id_ii_S2_P4E.2_K4.1_C4.2_[C-2T]_H4.1_A4.1_F4.1_T4.2_[T11C] (ssRNA) RNA: UUUGAUUAAUAUGAUAUCGUUCUUUCUUUUGUAUAUUAGCUUCUUUCUCGAUAUCAUAUUAAUCUUU | 0.396 nM
15 | Id_ii_S2_P4E.2_K4.1_C4.2_[C-2T]_H4.1_A4.1_F4.1_T4.2 (ssRNA) RNA: UUUGAUUAAUAUGAUAUCGUUCUUUCUUUUGUAUAUUAGUUUCUUUCUCGAUAUCAUAUUAAUCUUU | 0.456 nM
16 | Id_ii_S2_P4E.2_K4.1_C4.2_[C-2T]_H4.1_A4.1_F4.1_T4.2_[G10T]_[T11G] (ssRNA) RNA: UUUGAUUAAUAUGAUAUCGUUCUUUCUUUUGUAUAUUAUGUUCUUUCUCGAUAUCAUAUUAAUCUUU | 0.421 nM
17 | Id_ii_S2_P4E.2_K4.1_C4.2_[C-2G]_H4.1_A4.1_F4.1_T4.2_[G10T]_[T11A] (ssRNA) RNA: UUUGAUUAAUAUGAUAUCGUUCUUUCUGUUGUAUAUUAUAUUCUUUCUCGAUAUCAUAUUAAUCUUU | 0.928 nM
18 | Id_ii_S2_P4E.2_K4.1_C4.2_[C-2T]_[T-1G]_H4.1_A4.1_F4.1_T4.2_[G10T]_[T11C] (ssRNA) RNA: UUUGAUUAAUAUGAUAUCGUUCUUUCUUGUGUAUAUUAUCUUCUUUCUCGAUAUCAUAUUAAUCUUU | 0.441 nM
19 | Id_ii_S2_P4E.2_K4.1_C4.2_[C-2T]_[T-1C]_H4.1_A4.1_F4.1_T4.2_[G10T]_[T11C] (ssRNA) RNA: UUUGAUUAAUAUGAUAUCGUUCUUUCUUCUGUAUAUUAUCUUCUUUCUCGAUAUCAUAUUAAUCUUU | 0.305 nM
20 | Id_ii_S2_P4E.2_K4.1_C4.2_[C-2T]_[T-1A]_H4.1_A4.1_F4.1_T4.2_[G10T] (ssRNA) RNA: UUUGAUUAAUAUGAUAUCGUUCUUUCUUAUGUAUAUUAUUUUCUUUCUCGAUAUCAUAUUAAUCUUU | 0.502 nM
21 | Id_ii_S2_P4E.2_K4.1_C4.2_[C-2T]_[T-1A]_H4.1_A4.1_F4.1_T4.2_[G10A]_[T11A] (ssRNA) RNA: UUUGAUUAAUAUGAUAUCGUUCUUUCUUAUGUAUAUUAAAUUCUUUCUCGAUAUCAUAUUAAUCUUU | 1.03 nM
22 | Id_ii_S2_P4E.2_K4.1_C4.2_[C-2A]_[T-1C]_H4.1_A4.1_F4.1_T4.2_[G10T]_[T11C] (ssRNA) RNA: UUUGAUUAAUAUGAUAUCGUUCUUUCUACUGUAUAUUAUCUUCUUUCUCGAUAUCAUAUUAAUCUUU | 0.33 nM
23 | Id_ii_S2_P4E.2_K4.1_C4.2_[C-2T]_[T-1A]_H4.1_A4.1_F4.1_T4.2_[G10A] (ssRNA) RNA: UUUGAUUAAUAUGAUAUCGUUCUUUCUUAUGUAUAUUAAUUUCUUUCUCGAUAUCAUAUUAAUCUUU | 0.878 nM
